These results are taken from US20220041665A1, “POLYNUCLEOTIDE AND USES THEREOF” (Helsingin yliopisto, priority 2019, published 2022).

What all share (experiment): cell-based or functional assay
Assay [1] concerns the target all targets (endogenous loci tagged homozygously with miniIAA7-mEGFP N- or C-terminally).
Assay [2] concerns the target LBR tagged C-terminally with miniIAA7-mEGFP (human; Arabidopsis thaliana) (UniProt Q14739).
Assay [3] concerns the target NMIIa (MYH9) tagged N-terminally with miniIAA7-mEGFP (Arabidopsis thaliana; human) (UniProt P35579).
The target of assay [4] is Non-nuclear targets expressed at low levels (seipin, NPC1, PEX3 and Glut1), tagged with miniIAA7-mEGFP.
Assay [5] concerns the target seipin tagged with miniAID-mEGFP (miniAID = AtIAA17 amino acid residues 68-132) (human; Arabidopsis thaliana) (UniProt Q96G97).
The target of assay [6] is seipin tagged with miniIAA7-mEGFP (miniIAA7 = AtIAA7 amino acids 37-104) (human; Arabidopsis thaliana) (UniProt Q96G97).

B1: TIR1 derived from Oryza sativa (OsTIR1) (receptor, UniProt Q7XVM8 1-575, looked up)
chain: MTYFPEEVVEHIFSFLPAQRDRNTVSLVCKVWYEIERLSRRGVFVGNCYAVRAGRVAARFPNVRALTVKGKPHFADFNLVPPDWGGYAGPWIEAAARGCHGLEELRMKRMVVSDESLELLARSFPRFRALVLISCEGFSTDGLAAVASHCKLLRELDLQENEVEDRGPRWLSCFPDSCTSLVSLNFACIKGEVNAGSLERLVSRSPNLRSLRLNRSVSVDTLAKILLRTPNLEDLGTGNLTDDFQTESYFKLTSALEKCKMLRSLSGFWDASPVCLSFIYPLCAQLTGLNLSYAPTLDASDLTKMISRCVKLQRLWVLDCISDKGLQVVASSCKDLQELRVFPSDFYVAGYSAVTEEGLVAVSLGCPKLNSLLYFCHQMTNAALVTVAKNCPNFTRFRLCILEPGKPDVVTSQPLDEGFGAIVRECKGLQRLSISGLLTDKVFMYIGKYAKQLEMLSIAFAGDSDKGMMHVMNGCKNLRKLEIRDSPFGDAALLGNFARYETMRSLWMSSCNVTLKGCQVLASKMPMLNVEVINERDGSNEMEENHGDLPKVEKLYVYRTTAGARDDAPNFVKIL
As to B1, in assay [1], the basal degradation at 0 h IAA, FACS of GFP is 12 to 37% and the depletion efficiency at 16 h IAA, FACS of GFP fell in the range of 2 to 7%.

B2: Arabidopsis thaliana AFB2 (AtAFB2), auxin perceptive F-box protein, tagged with mCherry (receptor, not shown: large carriers)
chain: MNYFPDEVIEHVFDFVTSHKDRNAISLVCKSWYKIERYSRQKVFIGNCYAINPERLLRRFPCLKSLTLKGKPHFADFNLVPHEWGGFVLPWIEALARSRVGLEELRLKRMVVTDESLELLSRSFVNFKSLVLVSCEGFTTDGLASIAANCRHLRDLDLQENEIDDHRGQWLSCFPDTCTTLVTLNFACLEGETNLVALERLVARSPNLKSLKLNRAVPLDALARLMACAPQIVDLGVGSYENDPDSESYLKLMAVIKKCTSLRSLSGFLEAAPHCLSAFHPICHNLTSLNLSYAAEIHGSHLIKLIQHCKKLQRLWILDSIGDKGLEVVASTCKELQELRVFPSDLLGGGNTAVTEEGLVAISAGCPKLHSILYFCQQMTNAALVTVAKNCPNFIRFRLCILEPNKPDHVTSQPLDEGFGAIVKACKSLRRLSLSGLLTDQVFLYIGMYANQLEMLSIAFAGDTDKGMLYVLNGCKKMKKLEIRDSPFGDTALLADVSKYETMRSLWMSSCEVTLSGCKRLAEKAPWLNVEIINENDNNRMEENGHEGRQKVDKLYLYRTVVGTRMDAPPFVWILGGSGG
Regarding B2, the target protein level at 1 h IAA, FACS of GFP in assay [2] is under 12%; in assay [3], under 12%; in assay [4], 2 to 5%. The target protein level at 0 h IAA (basal degradation), FACS of GFP (% levels of control) in assay [1] lay in the range of 86 to 109. In assay [1], this molecule returned a target protein level at 16 h IAA, FACS of GFP of 2 to 5 % levels. Further, in assay [5], the target protein level before IAA addition (0 h IAA), FACS of GFP, compared to OsTIR1 stood at 5 fold. Besides, the auxin-inducible protein reduction at 1 h IAA, FACS of GFP, compared to miniAID in assay [6] is 3 fold.
